Experimental findings from PMC4416881, “Regulation of Active DNA Demethylation by a Methyl-CpG-Binding Domain Protein in Arabidopsis thaliana” (PLoS Genetics, 2015) are described below.

T1: His-IDL1 (Arabidopsis thaliana, UniProt Q9SYQ0 1-463)
T1 construct: IDL1, Arabidopsis thaliana, AT1G20870; detected with antibodies against the His6 tag; also called His-tagged IDL1; source: E. coli, purified; not shown: His6, N-terminal, kept
T1 sequence (looked up): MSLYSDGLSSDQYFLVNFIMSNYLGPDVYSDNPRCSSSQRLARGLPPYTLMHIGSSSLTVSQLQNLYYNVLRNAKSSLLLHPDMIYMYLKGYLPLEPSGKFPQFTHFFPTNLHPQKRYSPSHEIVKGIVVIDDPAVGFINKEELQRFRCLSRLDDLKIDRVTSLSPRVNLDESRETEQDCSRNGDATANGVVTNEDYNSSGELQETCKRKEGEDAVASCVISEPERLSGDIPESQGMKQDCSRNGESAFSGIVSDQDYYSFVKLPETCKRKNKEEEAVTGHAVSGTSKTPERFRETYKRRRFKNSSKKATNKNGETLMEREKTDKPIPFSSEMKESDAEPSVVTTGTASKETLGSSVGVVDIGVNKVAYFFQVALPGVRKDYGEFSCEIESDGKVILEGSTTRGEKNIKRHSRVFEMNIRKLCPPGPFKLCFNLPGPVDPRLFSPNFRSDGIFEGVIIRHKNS

T2: MBP-IDL1 (Arabidopsis thaliana, UniProt Q9SYQ0 1-463)
T2 construct: IDL1, Arabidopsis thaliana, AT1G20870; source: E. coli, fixed to an amylose resin; not shown: MBP, N-terminal, kept
T2 sequence (looked up): T1 sequence (looked up)

B1: MBP-IDM2 (natural protein, Arabidopsis thaliana, UniProt Q8RWL4 1-349, looked up)
chain: MSDTMPEIVSPLVAENSQEQEESVLISLDIEEDKLFLLHFIIGTYFGPDLRKQHHRPKQSAFQIQALKNVVVDELSGSLMKRAELERVYYHIIRNVDPSLVMKPKKLREYFNAKRNDSNRDYPLFVDLFPRKLHPETHVRHKFKFIRSIVFINDPDTSCMREECVARFKRLTGLDSFALSLSVDVTKSNGVVAANEVKVEIDESVEPVKEDNAGTCTSGEESDVAAKPEVKSEAHGGLMVGLMDIGECDDAYLFRVSLPGVKRDERYFSCEVEDNGKVLVRGVTTTGGKRVKRYSHVFEMQTRSLCPPGNFSVSFRLPGPVHPHEFSGNFGTDGILEGVVMKNLQKQTV
notes: IDM2, Arabidopsis thaliana, AT1G54840; source: E. coli, fixed to an amylose resin; not shown: MBP, N-terminal, kept
B2: His-MBD7 (natural protein, Arabidopsis thaliana, UniProt Q9FJF4 1-306, looked up)
chain: MQTRSSSSPSANHRRETQLQIADPTSFCGKIMPGWTVVNRPRSSNNGVVDTYFIEPGTGRQFSSLEAIHRHLAGEVNDRRLTRAGSFFQDKTRVYEGSRTKQDHCGVEYASKGFRLPRGWSVEEVPRKNSHYIDKYYVERKTGKRFRSLVSVERYLRESRNSIEQQLRVLQNRRGHSKDFRLPDGWIVEEKPRRSSSHIDRSYIEPGTGNKFRSMAAVERYLISVGNITLDSVSMVHSERLPLLMNRNGIRFQSEVIDPNPPKKVKWVLTGSGGNMFTANVRGSNVSSLVKHTWSEAFVSLIEDRS
notes: MBD7, Arabidopsis thaliana, AT5G59800; detected with antibodies against the His6 tag; also called His-tagged MBD7; source: E. coli, purified; not shown: His6, N-terminal, kept

Common to all, as to test: pull-down; MBP fusion from E. coli fixed to amylose resin, incubated with His-tagged protein purified from E. coli; immunoblot against His6 tag
What all share (details): both partners purified
In general terms: Immunoblotting shows a protein as a band on a membrane.

The target in experiment [1] is T1, His-IDL1.
Experiment [2] concerns the target B1.
The target in experiment [3] is T2, MBP-IDL1.

As for B1, the binding result in experiment [1] is reported as “binds”.

Take B2: the binding result in experiment [2] and in experiment [3] was “binds” each time.
